Ratio to parent data for ten variants are collected here from PMC13379236 (2026).

B1: C-terminal FLAG-tagged WT ZYG11B [human] / Strep-tagged NLRP1, C-terminal fragment generated by 3C cleavage (begins at G131) [human] (parent complex)
chain 1: PEDQAGAAMEEASPYSLLDICLNFLTTHLEKFCSARQDGTLCLQEPGVFPQEVADRLLRTMAFHGLLNDGTVGIFRGNQMRLKRACIRKAKISAVAFRKAFCHHKLVELDATGVNADITITDIISGLGSNKWIQQNLQCLVLNSLTLSLEDPYERCFSRLSGLRALSITNVLFYNEDLAEVASLPRLESLDISNTSITDITALLACKDRLKSLTMHHLKCLKMTTTQILDVVRELKHLNHLDISDDKQFTSDIALRLLEQKDILPNLVSLDVSGRKHVTDKAVEAFIQQRPSMQFVGLLATDAGYSEFLTGEGHLKVSGEANETQIAEALKRYSERAFFVREALFHLFSLTHVMEKTKPEILKLVVTGMRNHPMNLPVQLAASACVFNLTKQDLAAGMPVRLLADVTHLLLKAMEHFPNHQQLQKNCLLSLCSDRILQDVPFNRFEAAKLVMQWLCNHEDQNMQRMAVAIISILAAKLSTEQTAQLGTELFIVRQLLQIVKQKTNQNSVDTTLKFTLSALWNLTDESPTTCRHFIENQGLELFMRVLESFPTESSIQQKVLGLLNNIAEVQELHSELMWKDFIDHISSLLHSVEVEVSYFAAGIIAHLISRGEQAWTLSRSQRNSLLDDLHSAILKWPTPECEMVAYRSFNPFFPLLGCFTTPGVQLWAVWAMQHVCSKNPSRYCSMLIEEGGLQHLYNIKDHEHTDPHVQQIAVAILDSLEKHIVRHGRPPPCKKQPQARLN
chain 2: GSERRVLRQLPDTSGRRWREISASLLYQALPSSPDHESPSQESPNAPTSTAVLGSWGSPPQPSLAPREQEAPGTQWPLDETSGIYYTEIREREREKSEKGRPPWAAVVGTPPQAHTSLQPHHHPWEPSVRESLCSTWPWKNEDFNQKFTQLLLLQRPHPRSQDPLVKRSWPDYVEENRGHLIEIRDLFGPGLDTQEPRIVILQGAAGIGKSTLARQVKEAWGRGQLYGDRFQHVFYFSCRELAQSKVVSLAELIGKDGTATPAPIRQILSRPERLLFILDGVDEPGWVLQEPSSELCLHWSQPQPADALLGSLLGKTILPEASFLITARTTALQNLIPSLEQARWVEVLGFSESSRKEYFYRYFTDERQAIRAFRLVKSNKELWALCLVPWVSWLACTCLMQQMKRKEKLTLTSKTTTTLCLHYLAQALQAQPLGPQLRDLCSLAAEGIWQKKTLFSPDDLRKHGLDGAIISTFLKMGILQEHPIPLSYSFIHLCFQEFFAAMSYVLEDEKGRGKHSNCIIDLEKTLEAYGIHGLFGASTTRFLLGLLSDEGEREMENIFHCRLSQGRNLMQWVPSLQLLLQPHSLESLHCLYETRNKTFLTQVMAHFEEMGMCVETDMELLVCTFCIKFSRHVKKLQLIEGRQHRSTWSPTMVVLFRWVPVTDAYWQILFSVLKVTRNLKELDLSGNSLSHSAVKSLCKTLRRPRCLLETLRLAGCGLTAEDCKDLAFGLRANQTLTELDLSFNVLTDAGAKHLCQRLRQPSCKLQRLQLVSCGLTSDCCQDLASVLSASPSLKELDLQQNNLDDVGVRLLCEGLRHPACKLIRLGLDQTTLSDEMRQELRALEQEKPQLLIFSRRKPSVMTPTEGLDTGEMSNSTSSLKRQRLGSERAASHVAQANLKLLDVSKIFPIAEIAEESSPEVVPVELLCVPSPASQGDLHTKPLGTDDDFWGPTGPVATEVVDKEKNLYRVHFPVAGSYRWPNTGLCFVMREAVTVEIEFCVWDQFLGEINPQHSWMVAGPLLDIKAEPGAVEAVHLPHFVALQGGHVDTSLFQMAHFKEEGMLLEKPARVELHHIVLENPSFSPLGVLLKMIHNALRFIPVTSVVLLYHRVHPEEVTFHLYLIPSDCSIRKAIDDLEMKFQFVRIHKPPPLTPLYMGCRYTVSGSGSGMLEILPKELELCYRSPGEDQLFSEFYVGHLGSGIRLQVKDKKDETLVWEALVKPGDLMPATTLIPPARIAVPSPLDAPQLLHFVDQYREQLIARVTSVEVVLDKLHGQVLSQEQYERVLAENTRPSQMRKLFSLSQSWDRKCKDGLYQALKETHPHLIMELWEKGSKKGLLPLSS

The variants in the assay derive from B1. Briefly: coIP with western blot quantification; HEK293T cells, transfected for 48 h, with 3C protease; read off a plot. For orientation: A western blot detects proteins with antibodies after separation by electrophoresis.
For chain 1 D525A, the ratio to parent was approximately 0.05. In the case of chain 1 Y684A, the ratio to parent was approximately 0.51. Then chain 1 K514E, with approximately 1.1. Then chain 1 E643K, with approximately 0.5. As to chain 1 F515A, the ratio to parent was approximately 0.85. As for chain 1 E569A, the ratio to parent was approximately 0.05. For chain 1 W521A, the ratio to parent was approximately 0.05. Then chain 1 N566A, with approximately 0.08. To chain 1 R465A belongs approximately 0.27; to chain 1 D434K, approximately 0.94.
